T1: full-length human CEACAM5 (Homo sapiens, UniProt P06731, T210S)
T1 construct: The SPR kinetics against full-length human and cyno CEACAM5 were set up as follows
T1 sequence (P06731 35-702 T210S): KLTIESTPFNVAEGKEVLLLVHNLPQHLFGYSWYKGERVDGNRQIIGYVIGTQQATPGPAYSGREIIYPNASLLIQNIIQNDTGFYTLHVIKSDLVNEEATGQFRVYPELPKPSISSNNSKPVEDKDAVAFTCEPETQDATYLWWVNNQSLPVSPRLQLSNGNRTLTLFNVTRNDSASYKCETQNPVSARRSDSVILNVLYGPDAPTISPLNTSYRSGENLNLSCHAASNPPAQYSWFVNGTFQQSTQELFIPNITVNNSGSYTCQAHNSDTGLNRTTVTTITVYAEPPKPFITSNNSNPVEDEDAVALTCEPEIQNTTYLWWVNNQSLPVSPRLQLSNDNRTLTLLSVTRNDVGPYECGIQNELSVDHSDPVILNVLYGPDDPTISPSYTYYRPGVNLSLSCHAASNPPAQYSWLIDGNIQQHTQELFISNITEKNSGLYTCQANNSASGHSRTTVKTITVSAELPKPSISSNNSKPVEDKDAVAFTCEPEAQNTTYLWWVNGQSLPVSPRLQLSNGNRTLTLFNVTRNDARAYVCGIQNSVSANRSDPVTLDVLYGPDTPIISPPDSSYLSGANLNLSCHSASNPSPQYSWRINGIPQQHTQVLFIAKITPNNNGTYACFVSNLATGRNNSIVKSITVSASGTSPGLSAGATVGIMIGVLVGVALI

T2: HCT116-huCEACAM5 (Homo sapiens, UniProt P06731, T210S)
T2 construct: expressed in transfected cells; host or cells: HCT-116
T2 sequence (P06731 35-676 T210S): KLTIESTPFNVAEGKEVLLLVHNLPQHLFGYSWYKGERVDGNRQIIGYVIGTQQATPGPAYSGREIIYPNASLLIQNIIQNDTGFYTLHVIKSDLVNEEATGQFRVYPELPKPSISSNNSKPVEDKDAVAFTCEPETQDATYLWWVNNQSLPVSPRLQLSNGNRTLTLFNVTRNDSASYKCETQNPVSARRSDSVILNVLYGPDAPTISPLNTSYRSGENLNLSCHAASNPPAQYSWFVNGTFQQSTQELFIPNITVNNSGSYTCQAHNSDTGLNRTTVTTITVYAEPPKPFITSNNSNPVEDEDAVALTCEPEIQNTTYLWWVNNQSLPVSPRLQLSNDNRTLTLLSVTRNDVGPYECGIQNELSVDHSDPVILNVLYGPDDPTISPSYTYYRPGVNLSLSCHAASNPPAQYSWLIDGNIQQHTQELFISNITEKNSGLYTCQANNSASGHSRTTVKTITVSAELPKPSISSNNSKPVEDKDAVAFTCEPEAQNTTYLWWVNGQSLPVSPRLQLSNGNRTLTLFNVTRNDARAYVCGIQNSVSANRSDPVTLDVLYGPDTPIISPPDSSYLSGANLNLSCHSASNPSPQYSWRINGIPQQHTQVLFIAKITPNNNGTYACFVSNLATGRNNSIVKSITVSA

B1: MBP007: hIgG1.3f progeny of MBN001; VH SEQ ID NO: 73, VL SEQ ID NO: 74 (antibody, V domains shown)
VH: QVQLVESGGGVVQPGRSLRLSCAASGIYFSSHGMHWVRQAPGKGLEWVTFISYDGSYKSYVDSVKGRFTISRDNSKNTLYLQMNSLRAEDTAVYYCATGLTGTGANDIWGQGTMVTVSS
VL: EIVLTQSPGTLSLSPGERATLSCRASQSVSSSYLAWYQQKPGQAPRLLIYGASSRATGIPDRFSGSGSGTDFTLTISRLEPEDFAVYYCQQNKPSPYTFGQGTKLEIK
B2: MBP010: hIgG1.3f progeny of MBN001; VH SEQ ID NO: 79, VL SEQ ID NO: 80 (antibody, V domains shown)
VH: QVQLVESGGGVVQPGRSLRLSCAASGITFSSHGMHWVRQAPGKGLEWVTFISYDSSYKSYVDSVKGRFTISRDNSKNTLYLQMNSLRAEDTAVYYCATGLTGTGAFDIWGQGTMVTVSS
VL: EIVLTQSPGTLSLSPGERATLSCRASQSVSSSYLAWYQQKPGQAPRLLIYGASSRATGIPDRFSGSGSGTDFTLTISRLEPEDFAVYYCQQNKRSPYTFGQGTKLEIK

Tests used:
[1] = system: MKN45; test: Internalization of progeny antibodies (Incucyte, pHrodo red), Example 9; format: cell-based; conditions: hIgG1.3 progeny, 25 nM mAb, Table 13A
Experimental: (§1) Antibodies were evaluated for internalization using HCT-116-huCEACAM5, HCT-116-cyCEACAM5, and MKN45 cell lines.
The MKN45 or Ls174T cells were seeded at 10K cells/well (50 uL).
(§2) Cell lines were first analyzed for cell density and viability using a Vi-cell viability machine. The cell lines were diluted to 0.2E6 vc/mL in growth media, and a volume (50 uL) of each was dispensed to a flat-bottom 96-well plate to achieve cell counts of 10K cells/well. Ls174T media included MEM with 10% HI-FBS and 1% pen/strep. MKN45 media included RPMI (ATCC modification) with 10% HI-FBS and 1% pen/strep. HCT-116 media included McCoy's 5a with 10% HI-FBS, 1% pen/strep, and 6 μg/mL Blasticidin. Cells were allowed to adhere to wells of the 96-well plate (Corning Cat. No. 3595) at 37° C./5% CO2 for approximately 4 hours.
Each test mAb and control mAb was labeled by first pre-mixing the respective antibody with a pHrodo red (Fab conjugated to pH-sensitive; Thermo cat #Z25612) secondary reagent at a 3:1 dye:mAb molar ratio. A series of dilutions were prepared at 2× target concentration in growth media. […]
(§3) Coated plates contacted with the labeled mAbs were incubated at 37° C. for 30 minutes. Each plate was then read using an Incucyte apparatus, which collected images from the red and phase channels [10× objective; 3 images/well] for a 24-hour duration, with reads of plates every 30 minutes.

[2] = molecular target: T1, full-length human CEACAM5; test: SPR kinetics of progeny antibodies (BIACORE), Example 8; format: binding; conditions: hIgG1.3f progeny antibodies, Table 12A
Excerpt: (§4) Antibody genes with single amino acid substitutions and combinations of substitutions were synthesized in IgG expression vectors, transiently transfected into HEK cells, and purified via Protein A. In addition, the framework germline reversions described above were also incorporated into the sequences of the progeny. Purified IgG1.3 CEACAM5 mAb clones were characterized using the BIACORE® for high-throughput SPR-based monoclonal characterization.
(§5) The BIACORE® instrument was primed with 1×HBSP+ running buffer (Cytiva catalog no.BR100671). The CM5 chip (Cytiva catalog no. 29149604) was equilibrated to room temperature, and the BIACORE® instrument was re-primed. A human antibody Fc capture kit (Cytiva catalog no. 29234600) was utilized for this analysis. The human antibody Fc capture reagent was immobilized to both flow cells in all 8 flow channels of the CM5 chip via amine-coupling using the following conditions. Immobilization was performed at a temperature of 25° C. The anti-human Fc capture reagent was diluted to a concentration of 25 μg/mL in acetate pH5 buffer. The chip surface was activated by injecting a mixture of 1-ethyl-3-(-3-dimethylaminopropyl) carbodiimide hydrochloride (EDC) and N-hydroxy succinimide (NHS) for 420 seconds at a rate of 10 microliters per minute (uL/min). A concentration (25 ug/mL) of anti-human Fc capture reagent was then injected on the surface for 420 seconds at a rate of 10 uL/min. The remaining chip surface was blocked by injecting ethanolamine for 420 seconds at a rate of 10 uL/min.
(§6) The SPR kinetics against full-length human and cyno CEACAM5 were set up as follows. The antibody capture was performed by diluting the antibodies to a concentration of 10 nM in HBSP+ buffer. The 10 nM mAbs were captured for 20 seconds at 5 uL/min to achieve capture levels of approximately 100RU. Analyte binding was performed by first making a titration series of full-length human and cyno CEACAM5 that were prepared (from 500 nM-0.23 nM) with three-fold dilutions in HBSP+ buffer. The association rate was 180 seconds at 30 uL/min. The dissociation rate was 600 seconds at 30 uL/min. Regeneration was performed using two injections of 3M magnesium chloride MgCl2 for 30 seconds at 30 uL/min. A data fit was performed using a 1:1 binding model with global Rmax. Rmax reflects the maximal response when all ligand is occupied.

[3] = system: HCT116-cyCEACAM5; test: Internalization of progeny antibodies (Incucyte, pHrodo red), Example 9; format: cell-based, cynomolgus; conditions: hIgG1.3 progeny, 25 nM mAb, Table 13A
Sequence of HCT116-cyCEACAM5 (as listed by the source): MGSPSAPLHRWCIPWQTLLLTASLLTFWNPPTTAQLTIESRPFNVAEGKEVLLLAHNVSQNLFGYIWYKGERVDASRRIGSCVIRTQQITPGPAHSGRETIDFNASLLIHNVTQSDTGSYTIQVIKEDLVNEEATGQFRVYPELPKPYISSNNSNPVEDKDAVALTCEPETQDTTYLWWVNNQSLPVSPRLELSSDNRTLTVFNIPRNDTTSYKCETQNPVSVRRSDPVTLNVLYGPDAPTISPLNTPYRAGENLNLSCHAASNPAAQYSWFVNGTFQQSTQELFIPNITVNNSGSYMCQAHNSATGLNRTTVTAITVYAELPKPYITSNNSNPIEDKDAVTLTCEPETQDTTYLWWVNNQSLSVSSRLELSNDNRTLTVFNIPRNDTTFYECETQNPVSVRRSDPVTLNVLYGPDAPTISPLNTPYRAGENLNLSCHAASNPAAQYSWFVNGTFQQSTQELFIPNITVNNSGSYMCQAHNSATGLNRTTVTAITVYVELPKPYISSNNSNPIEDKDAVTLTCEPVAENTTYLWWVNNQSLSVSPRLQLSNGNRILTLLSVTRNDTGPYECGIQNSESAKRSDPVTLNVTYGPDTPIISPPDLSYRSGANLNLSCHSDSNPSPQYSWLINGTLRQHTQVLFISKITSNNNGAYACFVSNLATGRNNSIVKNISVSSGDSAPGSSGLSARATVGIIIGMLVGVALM
Experimental: as §1, §2
(§7) Each test mAb and control mAb was labeled by first pre-mixing the respective antibody with a pHrodo red (Fab conjugated to pH-sensitive; Thermo cat #Z25612) secondary reagent at a 3:1 dye:mAb molar ratio. A series of dilutions were prepared at 2× target concentration in growth media. The final mAb target concentration was 25 nM. […]
Coated plates contacted with the labeled mAbs were incubated at 37° C. for 30 minutes. Each plate was then read using an Incucyte apparatus, which collected images from the red and phase channels [10× objective; 3 images/well] for a 24-hour duration, with reads of plates every 30 minutes. […]

[4] = molecular target: T2, HCT116-huCEACAM5; test: as above; format: cell-based; conditions: hIgG1.3 progeny, 25 nM mAb, Table 13A
Experimental: as §1, §2, §7, §3

[5] = system: full-length cyno CEACAM5; test: SPR kinetics of progeny antibodies (BIACORE), Example 8; format: binding, cynomolgus; conditions: hIgG1.3f progeny antibodies, Table 12A; for Kd: read-out: cyCEACAM5 KD
Sequence of full-length cyno CEACAM5 (as listed by the source): as above
Excerpt: as §4, §5, §6

| Molecule | MKN45 24 hr red/phase AUC (internalization) [1] | huCEACAM5 ka [2] | huCEACAM5 kd [2] | HCT116-cyCEACAM5 red/phase AUC (internalization) [3] | HCT116-huCEACAM5 red/phase AUC (internalization) [4] | cyCEACAM5 ka [5] | cyCEACAM5 kd [5] | Kd [5] |
| --- | --- | --- | --- | --- | --- | --- | --- | --- |
| B1 | 3.28 | 79600 M⁻¹ s⁻¹ | 0.00171 s⁻¹ | 1.80 | 1.05 | 42700 M⁻¹ s⁻¹ | 0.000924 s⁻¹ | 21.7 nM |
| B2 | 3.11 | 50000 M⁻¹ s⁻¹ | 0.00102 s⁻¹ | 2.55 | 1.00 | 34000 M⁻¹ s⁻¹ | 0.000706 s⁻¹ | 20.8 nM |
